In general, Kd refers to the concentration at which binding is half-saturated.

Among the data in patent publication US20230140797A1 (published 2023) are Kd values, retold here.

T1: human FcγRIIb extracellular domain with C-terminal His tag (human, UniProt P31994 43-217)
T1 sequence (looked up): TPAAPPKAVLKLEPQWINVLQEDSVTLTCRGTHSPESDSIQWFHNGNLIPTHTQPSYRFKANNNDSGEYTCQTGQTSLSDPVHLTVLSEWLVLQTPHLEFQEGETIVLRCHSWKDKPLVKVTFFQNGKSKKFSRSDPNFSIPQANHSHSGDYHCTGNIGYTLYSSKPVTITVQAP

T2: human FcγRIIa type R (131Arg) extracellular domain with C-terminal His tag (human, UniProt P12318 34-217)
T2 sequence (looked up): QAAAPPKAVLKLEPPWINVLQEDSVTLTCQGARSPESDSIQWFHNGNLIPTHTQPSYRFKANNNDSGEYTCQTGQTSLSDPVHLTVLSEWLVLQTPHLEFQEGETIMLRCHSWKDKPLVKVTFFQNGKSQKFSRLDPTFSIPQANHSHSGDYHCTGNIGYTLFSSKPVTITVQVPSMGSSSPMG

T3: human FcγRIIa type H (131His) extracellular domain with C-terminal His tag (human, UniProt P12318 34-217)
T3 sequence (looked up): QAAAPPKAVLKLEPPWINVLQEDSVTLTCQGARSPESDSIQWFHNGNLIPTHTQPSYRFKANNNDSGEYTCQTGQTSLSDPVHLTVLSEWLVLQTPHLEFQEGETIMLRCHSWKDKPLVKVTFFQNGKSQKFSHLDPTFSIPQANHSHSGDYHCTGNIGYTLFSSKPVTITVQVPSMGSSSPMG

B1: IL6R-BP087/IL6R-L (antibody, human IgG1, kappa)
heavy: QVQLQESGPGLVKPSETLSLTCAVSGHSISHDHAWSWVRQPPGEGLEWIGFISYSGITNYNPSLQGRVTISRDNSKNTLYLQMNSLRAEDTAVYYCARSLARTTAMDYWGEGTLVTVSSASTKGPSVFPLAPSSKSTSGGTAALGCLVKDYFPEPVTVSWNSGALTSGVHTFPAVLQSSGLYSLSSVVTVPSSSLGTQTYICNVNHKPSNTKVDKKVEPKSCDKTHTCPPCPAPEYLGGDSVFLFPPKPKDTLMISRTPEVTCVVVDVSHEDPEVKFNWYVDGVEVHNAKTKPREEQYNSTYRVVSVLTVLHQDWLNGKEYKCKVSNKALPKPIEKTISKAKGQPREPQVYTLPPSRDELTKNQVSLTCLVKGFYPSDIAVEWESNGQPENNYKTTPPVLDSDGSFFLYSKLTVDKSRWQQGNVFSCSVMHEALHNHYTQESLSLSP
light: not shown
B2: IL6R-BP479/IL6R-L (antibody, human IgG1, kappa)
heavy: QVQLQESGPGLVKPSETLSLTCAVSGHSISHDHAWSWVRQPPGEGLEWIGFISYSGITNYNPSLQGRVTISRDNSKNTLYLQMNSLRAEDTAVYYCARSLARTTAMDYWGEGTLVTVSSASTKGPSVFPLAPSSKSTSGGTAALGCLVKDYFPEPVTVSWNSGALTSGVHTFPAVLQSSGLYSLSSVVTVPSSSLGTQTYICNVNHKPSNTKVDKKVEPKSCDKTHTCPPCPAPDLLGDDSVFLFPPKPKDTLMISRTPEVTCVVIDLAEEDGEVKFNWYVDGVEVHNAKTKPREEQYNSTYRVVSVLTVLHQDWLNGKEYKCKVSNKALPAPIEKTISKAKGQPREPQVYTLPPSRDELTKNQVSLTCLVKGFYPSDIAVEWESNGQPENNYKTTPPVLDSDGSFFLYSKLTVDKSRWQQGNVFSCSVMHEALHNHYTQESLSLSP
light: not shown
B3: IL6R-BP436/IL6R-L (antibody, human IgG1, kappa)
heavy: QVQLQESGPGLVKPSETLSLTCAVSGHSISHDHAWSWVRQPPGEGLEWIGFISYSGITNYNPSLQGRVTISRDNSKNTLYLQMNSLRAEDTAVYYCARSLARTTAMDYWGEGTLVTVSSASTKGPSVFPLAPSSKSTSGGTAALGCLVKDYFPEPVTVSWNSGALTSGVHTFPAVLQSSGLYSLSSVVTVPSSSLGTQTYICNVNHKPSNTKVDKKVEPKSCDKTHTCPPCPAPDLLGDDSVFLFPPKPKDTLMISRTPEVTCVVVDVAEEDGEVKFNWYVDGVEVHNAKTKPREEQDNSTYRVVSVLTVLHQDWLNGKEYKCKVSNKALPRPTEKTISKAKGQPREPQVYTLPPSRDELTKNQVSLTCLVKGFYPSDIAVEWESNGQPENNYKTTPPVLDSDGSFFLYSKLTVDKSRWQQGNVFSCSVMHEALHNHYTQESLSLSP
light: not shown
B4: IL6R-BP425/IL6R-L (antibody, human IgG1, kappa)
heavy: QVQLQESGPGLVKPSETLSLTCAVSGHSISHDHAWSWVRQPPGEGLEWIGFISYSGITNYNPSLQGRVTISRDNSKNTLYLQMNSLRAEDTAVYYCARSLARTTAMDYWGEGTLVTVSSASTKGPSVFPLAPSSKSTSGGTAALGCLVKDYFPEPVTVSWNSGALTSGVHTFPAVLQSSGLYSLSSVVTVPSSSLGTQTYICNVNHKPSNTKVDKKVEPKSCDKTHTCPPCPAPDLLGDDSVFLFPPKPKDTLMISRTPEVTCVVVDLAEEDGEVKFNWYVDGVEVHNAKTKPREEQYNSTYRVVSVLTVLHQDWLNGKEYKCKVSNKALPRPIEKTISKAKGQPREPQVYTLPPSRDELTKNQVSLTCLVKGFYPSDIAVEWESNGQPENNYKTTPPVLDSDGSFFLYSKLTVDKSRWQQGNVFSCSVMHEALHNHYTQESLSLSP
light: not shown
B5: IL6R-BP431/IL6R-L (antibody, human IgG1, kappa)
heavy: QVQLQESGPGLVKPSETLSLTCAVSGHSISHDHAWSWVRQPPGEGLEWIGFISYSGITNYNPSLQGRVTISRDNSKNTLYLQMNSLRAEDTAVYYCARSLARTTAMDYWGEGTLVTVSSASTKGPSVFPLAPSSKSTSGGTAALGCLVKDYFPEPVTVSWNSGALTSGVHTFPAVLQSSGLYSLSSVVTVPSSSLGTQTYICNVNHKPSNTKVDKKVEPKSCDKTHTCPPCPAPDLLGDDSVFLFPPKPKDTLMISRTPEVTCVVVDVGEDDGEVKFNWYVDGVEVHNAKTKPREEQYNSTYRVVSVLTVLHQDWLNGKEYKCKVSNKALPRPIEKTISKAKGQPREPQVYTLPPSRDELTKNQVSLTCLVKGFYPSDIAVEWESNGQPENNYKTTPPVLDSDGSFFLYSKLTVDKSRWQQGNVFSCSVMHEALHNHYTQESLSLSP
light: not shown
B6: IL6R-BP268/IL6R-L (antibody, human IgG1, kappa)
heavy: QVQLQESGPGLVKPSETLSLTCAVSGHSISHDHAWSWVRQPPGEGLEWIGFISYSGITNYNPSLQGRVTISRDNSKNTLYLQMNSLRAEDTAVYYCARSLARTTAMDYWGEGTLVTVSSASTKGPSVFPLAPSSKSTSGGTAALGCLVKDYFPEPVTVSWNSGALTSGVHTFPAVLQSSGLYSLSSVVTVPSSSLGTQTYICNVNHKPSNTKVDKKVEPKSCDKTHTCPPCPAPDLLGDDSVFLFPPKPKDTLMISRTPEVTCVVVDVSEEDGEVKFNWYVDGVEVHNAKTKPREEQDNSTYRVVSVLTVLHQDWLNGKEYKCKVSNKALPAPIEKTISKAKGQPREPQVYTLPPSRDELTKNQVSLTCLVKGFYPSDIAVEWESNGQPENNYKTTPPVLDSDGSFFLYSKLTVDKSRWQQGNVFSCSVMHEALHNHYTQESLSLSP
light: not shown
B7: IL6R-BP493/IL6R-L (antibody, human IgG1, kappa)
heavy: QVQLQESGPGLVKPSETLSLTCAVSGHSISHDHAWSWVRQPPGEGLEWIGFISYSGITNYNPSLQGRVTISRDNSKNTLYLQMNSLRAEDTAVYYCARSLARTTAMDYWGEGTLVTVSSASTKGPSVFPLAPSSKSTSGGTAALGCLVKDYFPEPVTVSWNSGALTSGVHTFPAVLQSSGLYSLSSVVTVPSSSLGTQTYICNVNHKPSNTKVDKKVEPKSCDKTHTCPPCPAPELLGGDSVFLFPPKPKDTLMISRTPEVTCVVIDVAEEDGEVKFNWYVDGVEVHNAKTKPREEQDNSTYRVVSVLTVLHQDWLNGKEYKCKVSNKALPAPIEKTISKAKGQPREPQVYTLPPSRDELTKNQVSLTCLVKGFYPSDIAVEWESNGQPENNYKTTPPVLDSDGSFFLYSKLTVDKSRWQQGNVFSCSVMHEALHNHYTQESLSLSP
light: not shown
B8: IL6R-BP435/IL6R-L (antibody, human IgG1, kappa)
heavy: QVQLQESGPGLVKPSETLSLTCAVSGHSISHDHAWSWVRQPPGEGLEWIGFISYSGITNYNPSLQGRVTISRDNSKNTLYLQMNSLRAEDTAVYYCARSLARTTAMDYWGEGTLVTVSSASTKGPSVFPLAPSSKSTSGGTAALGCLVKDYFPEPVTVSWNSGALTSGVHTFPAVLQSSGLYSLSSVVTVPSSSLGTQTYICNVNHKPSNTKVDKKVEPKSCDKTHTCPPCPAPDLLGDDSVFLFPPKPKDTLMISRTPEVTCVVVDVSDEDGEVKFNWYVDGVEVHNAKTKPREEQDNSTYRVVSVLTVLHQDWLNGKEYKCKVSNAALPRPTEKTISKAKGQPREPQVYTLPPSRDELTKNQVSLTCLVKGFYPSDIAVEWESNGQPENNYKTTPPVLDSDGSFFLYSKLTVDKSRWQQGNVFSCSVMHEALHNHYTQESLSLSP
light: not shown
B9: IL6R-BP441/IL6R-L (antibody, human IgG1, kappa)
heavy: QVQLQESGPGLVKPSETLSLTCAVSGHSISHDHAWSWVRQPPGEGLEWIGFISYSGITNYNPSLQGRVTISRDNSKNTLYLQMNSLRAEDTAVYYCARSLARTTAMDYWGEGTLVTVSSASTKGPSVFPLAPSSKSTSGGTAALGCLVKDYFPEPVTVSWNSGALTSGVHTFPAVLQSSGLYSLSSVVTVPSSSLGTQTYICNVNHKPSNTKVDKKVEPKSCDKTHTCPPCPAPDLLGDDSVFLFPPKPKDTLMISRTPEVTCVVVDLSEEDGEVKFNWYVDGVEVHNAKTKPREEQYNSTYRVVSVLTVLHQDWLNGKEYKCKVSNKALPRPIEKTISKAKGQPREPQVYTLPPSRDELTKNQVSLTCLVKGFYPSDIAVEWESNGQPENNYKTTPPVLDSDGSFFLYSKLTVDKSRWQQGNVFSCSVMHEALHNHYTQESLSLSP
light: not shown
B10: IL6R-BP440/IL6R-L (antibody, human IgG1, kappa)
heavy: QVQLQESGPGLVKPSETLSLTCAVSGHSISHDHAWSWVRQPPGEGLEWIGFISYSGITNYNPSLQGRVTISRDNSKNTLYLQMNSLRAEDTAVYYCARSLARTTAMDYWGEGTLVTVSSASTKGPSVFPLAPSSKSTSGGTAALGCLVKDYFPEPVTVSWNSGALTSGVHTFPAVLQSSGLYSLSSVVTVPSSSLGTQTYICNVNHKPSNTKVDKKVEPKSCDKTHTCPPCPAPDLLGDDSVFLFPPKPKDTLMISRTPEVTCVVIDVSEEDGEVKFNWYVDGVEVHNAKTKPREEQYNSTYRVVSVLTVLHQDWLNGKEYKCKVSNKALPRPIEKTISKAKGQPREPQVYTLPPSRDELTKNQVSLTCLVKGFYPSDIAVEWESNGQPENNYKTTPPVLDSDGSFFLYSKLTVDKSRWQQGNVFSCSVMHEALHNHYTQESLSLSP
light: not shown
B11: IL6R-BP481/IL6R-L (antibody, human IgG1, kappa)
heavy: QVQLQESGPGLVKPSETLSLTCAVSGHSISHDHAWSWVRQPPGEGLEWIGFISYSGITNYNPSLQGRVTISRDNSKNTLYLQMNSLRAEDTAVYYCARSLARTTAMDYWGEGTLVTVSSASTKGPSVFPLAPSSKSTSGGTAALGCLVKDYFPEPVTVSWNSGALTSGVHTFPAVLQSSGLYSLSSVVTVPSSSLGTQTYICNVNHKPSNTKVDKKVEPKSCDKTHTCPPCPAPDLLGDDSVFLFPPKPKDTLMISRTPEVTCVVIDVAEEDGEVKFNWYVDGVEVHNAKTKPREEQYNSTYRVVSVLTVLHQDWLNGKEYKCKVSNKALPAPIEKTISKAKGQPREPQVYTLPPSRDELTKNQVSLTCLVKGFYPSDIAVEWESNGQPENNYKTTPPVLDSDGSFFLYSKLTVDKSRWQQGNVFSCSVMHEALHNHYTQESLSLSP
light: not shown

The target of one assay is human FcγRIa extracellular domain with C-terminal His tag (human, UniProt P12314 16-292). Nature of the assay: SPR. For orientation: Surface plasmon resonance follows binding to a sensor surface in real time, without labels.
human FcγRIa extracellular domain with C-terminal His tag, sequence (P12314 16-292): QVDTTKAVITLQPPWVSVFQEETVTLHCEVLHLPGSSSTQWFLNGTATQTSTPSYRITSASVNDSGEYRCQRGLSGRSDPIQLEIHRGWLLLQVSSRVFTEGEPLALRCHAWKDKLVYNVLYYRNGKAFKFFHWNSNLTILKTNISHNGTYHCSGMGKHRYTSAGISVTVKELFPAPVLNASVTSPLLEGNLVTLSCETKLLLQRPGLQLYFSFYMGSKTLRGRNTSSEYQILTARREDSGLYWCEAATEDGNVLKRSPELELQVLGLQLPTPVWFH
Regarding B1, the Kd is 3800 nM.

In another assay the target is T1, human FcγRIIb extracellular domain with …. Kind of assay: SPR.
B2 came in with a dissociation constant Kd of 5600 nM.
B3 yielded a Kd of 51 nM.
For the molecule B4, the Kd came out at 0.1 nM.
B5 yielded an equilibrium dissociation constant (Kd) of 1.2 nM.

For a further assay, the target named is T2, human FcγRIIa type R (131Arg) …. Kind of assay: SPR.
In turn, B6 returned a Kd of 1300 nM.
For B7, the Kd was determined as 11 nM.
Same read-out and setting: the value for B8 was 120 nM.

The target of another assay is T3, human FcγRIIa type H (131His) …. Nature of the assay: SPR.
In turn, B7 had a Kd of 13000 nM.
With B9, the Kd turned out to be 3 nM.
Molecule B10 came in with a Kd of 1500 nM.
Molecule B11 gave a Kd of 8300 nM.
